These results are taken from publication PMC6286126, “A novel pathway of LPS uptake through syndecan-1 leading to pyroptotic cell death” (eLife, 2018).

The data set deals with the molecule itself. Kind of data set: native gel or EMSA; human SCGB3A2 10 µg on 0.8% agarose gel in TAE, Coomassie Brilliant Blue staining of the gel. In general terms: In EMSA bound probe runs differently from free probe, usually more slowly.

B1: recombinant human SCGB3A2 (C1) (natural protein, UniProt Q96PL1 22-93, looked up)
chain: FLINKVPLPVDKLAPLPLDNILPFMDPLKLLLKTLGISVEHLVEGLRKCVNELGPEASEAVKKLLEALSHLV
notes: recombinant human SCGB3A2, lot C1; also called hS2; source: recombinant; in house (APCBio Innovations), Cai et al., 2014
As to B1, the binding result was “binds”.
